Patent US11079398B2, “Method for measurement of peptidic degradation products of a proteolytic cascade in blood samples” (ATTOQUANT DIAGNOSTICS GMBH, priority 2012, dated 2021)

Test system: renin-angiotensin system (RAS)
Test: RSSE-Fingerprinting: blood incubated at 37° C. with added agents, LC-MS/MS quantification of angiotensin peptides
Type: biochemical, human
Conditions: for shift of RSSE-Fingerprint: 5 μg/ml enzyme added prior to incubation
Description: Blood samples were collected and anti-coagulated with standardised heparin tubes (BD). As indicated in FIGS. 3A-3C, plasma separation has been done for the respective samples before the incubation to reach steady state equilibrium.
Following plasma separation by centrifugation at 3000 rcf for 10 minutes at 4° C., […] of plasma was applied onto an activated and equilibrated SEP-PAK™ C18 cartridge. Sample matrix components were removed by washing three times with 1 ml water. Bound analytes were then eluted with 1 ml of methanol. Eluates were evaporated to dryness and reconstituted in 10% acetonitril/90% water supplemented with 0.1% formic acid followed by subjection to LC-MS/MS analysis.
A vacuum manifold has been used for sample processing. • 1. Activation: EtOH abs. • 2. Equilibration: 2×1 ml H2O • 3. Loading: 0.2-1 ml stabilised plasma • 4. Washing: 3×1 ml H2O • 5. Elution: 1 ml MeOH Quantification and Signal Integration
MRM chromatograms were integrated using Analyst 1.5.1 software provided by Applied Biosystems. The threshold for the quantification limit was set at a signal-to-noise ratio of 10. Integration signals not reaching this ratio were set to zero. Analyte signals were related to internal standard signals and concentration was calculated from initially spiked amounts of internal standards.

B1: NEP: recombinant neutral endopeptidase (neprilysin), purchased from R&D Systems (protein, UniProt P08473 2-750, looked up)
Neprilysin: GKSESQMDITDINTPKPKKKQRWTPLEISLSVLVLLLTIIAVTMIALYATYDDGICKSSDCIKSAARLIQNMDATTEPCTDFFKYACGGWLKRNVIPETSSRYGNFDILRDELEVVLKDVLQEPKTEDIVAVQKAKALYRSCINESAIDSRGGEPLLKLLPDIYGWPVATENWEQKYGASWTAEKAIAQLNSKYGKKVLINLFVGTDDKNSVNHVIHIDQPRLGLPSRDYYECTGIYKEACTAYVDFMISVARLIRQEERLPIDENQLALEMNKVMELEKEIANATAKPEDRNDPMLLYNKMTLAQIQNNFSLEINGKPFSWLNFTNEIMSTVNISITNEEDVVVYAPEYLTKLKPILTKYSARDLQNLMSWRFIMDLVSSLSRTYKESRNAFRKALYGTTSETATWRRCANYVNGNMENAVGRLYVEAAFAGESKHVVEDLIAQIREVFIQTLDDLTWMDAETKKRAEEKALAIKERIGYPDDIVSNDNKLNNEYLELNYKEDEYFENIIQNLKFSQSKQLKKLREKVDKDEWISGAAVVNAFYSSGRNQIVFPAGILQPPFFSAQQSNSLNYGGIGMVIGHEITHGFDDNGRNFNKDGDLVDWWTQQSASNFKEQSQCMVYQYGNFSWDLAGGQHLNGINTLGENIADNGGLGQAYRAYQNYIKKNGEEKLLPGLDLNHKQLFFLNFAQVWCGTYRPEYAVNSIKTDVHSPGNFRIIGTLQNSAEFSEAFHCRKNSYMNPEKKCRVW
Q: For B1, which “shift of RSSE-Fingerprint” value is on record?
A: shifted as expected

B2: APN: recombinant aminopeptidase N, purchased from R&D Systems (protein, UniProt P15144 2-967, looked up)
Aminopeptidase N: AKGFYISKSLGILGILLGVAAVCTIIALSVVYSQEKNKNANSSPVASTTPSASATTNPASATTLDQSKAWNRYRLPNTLKPDSYRVTLRPYLTPNDRGLYVFKGSSTVRFTCKEATDVIIIHSKKLNYTLSQGHRVVLRGVGGSQPPDIDKTELVEPTEYLVVHLKGSLVKDSQYEMDSEFEGELADDLAGFYRSEYMEGNVRKVVATTQMQAADARKSFPCFDEPAMKAEFNITLIHPKDLTALSNMLPKGPSTPLPEDPNWNVTEFHTTPKMSTYLLAFIVSEFDYVEKQASNGVLIRIWARPSAIAAGHGDYALNVTGPILNFFAGHYDTPYPLPKSDQIGLPDFNAGAMENWGLVTYRENSLLFDPLSSSSSNKERVVTVIAHELAHQWFGNLVTIEWWNDLWLNEGFASYVEYLGADYAEPTWNLKDLMVLNDVYRVMAVDALASSHPLSTPASEINTPAQISELFDAISYSKGASVLRMLSSFLSEDVFKQGLASYLHTFAYQNTIYLNLWDHLQEAVNNRSIQLPTTVRDIMNRWTLQMGFPVITVDTSTGTLSQEHFLLDPDSNVTRPSEFNYVWIVPITSIRDGRQQQDYWLIDVRAQNDLFSTSGNEWVLLNLNVTGYYRVNYDEENWRKIQTQLQRDHSAIPVINRAQIINDAFNLASAHKVPVTLALNNTLFLIEERQYMPWEAALSSLSYFKLMFDRSEVYGPMKNYLKKQVTPLFIHFRNNTNNWREIPENLMDQYSEVNAISTACSNGVPECEEMVSGLFKQWMENPNNNPIHPNLRSTVYCNAIAQGGEEEWDFAWEQFRNATLVNEADKLRAALACSKELWILNRYLSYTLNPDLIRKQDATSTIISITNNVIGQGLVWDFVQSNWKKLFNDYGGGSFSFSNLIQAVTRRFSTEYELQQLEQFKKDNEETGFGSGTRALEQALEKTKANIKWVKENKEVVLQWFTENSK
Q: How did the “shift of RSSE-Fingerprint” value turn out when B2 was run?
A: shifted as expected

B3: ACE: recombinant RAS enzyme Angiotensin Converting Enzyme, purchased from R&D Systems (protein, UniProt P12821 30-1306, looked up)
Angiotensin-converting enzyme: LDPGLQPGNFSADEAGAQLFAQSYNSSAEQVLFQSVAASWAHDTNITAENARRQEEAALLSQEFAEAWGQKAKELYEPIWQNFTDPQLRRIIGAVRTLGSANLPLAKRQQYNALLSNMSRIYSTAKVCLPNKTATCWSLDPDLTNILASSRSYAMLLFAWEGWHNAAGIPLKPLYEDFTALSNEAYKQDGFTDTGAYWRSWYNSPTFEDDLEHLYQQLEPLYLNLHAFVRRALHRRYGDRYINLRGPIPAHLLGDMWAQSWENIYDMVVPFPDKPNLDVTSTMLQQGWNATHMFRVAEEFFTSLELSPMPPEFWEGSMLEKPADGREVVCHASAWDFYNRKDFRIKQCTRVTMDQLSTVHHEMGHIQYYLQYKDLPVSLRRGANPGFHEAIGDVLALSVSTPEHLHKIGLLDRVTNDTESDINYLLKMALEKIAFLPFGYLVDQWRWGVFSGRTPPSRYNFDWWYLRTKYQGICPPVTRNETHFDAGAKFHVPNVTPYIRYFVSFVLQFQFHEALCKEAGYEGPLHQCDIYRSTKAGAKLRKVLQAGSSRPWQEVLKDMVGLDALDAQPLLKYFQPVTQWLQEQNQQNGEVLGWPEYQWHPPLPDNYPEGIDLVTDEAEASKFVEEYDRTSQVVWNEYAEANWNYNTNITTETSKILLQKNMQIANHTLKYGTQARKFDVNQLQNTTIKRIIKKVQDLERAALPAQELEEYNKILLDMETTYSVATVCHPNGSCLQLEPDLTNVMATSRKYEDLLWAWEGWRDKAGRAILQFYPKYVELINQAARLNGYVDAGDSWRSMYETPSLEQDLERLFQELQPLYLNLHAYVRRALHRHYGAQHINLEGPIPAHLLGNMWAQTWSNIYDLVVPFPSAPSMDTTEAMLKQGWTPRRMFKEADDFFTSLGLLPVPPEFWNKSMLEKPTDGREVVCHASAWDFYNGKDFRIKQCTTVNLEDLVVAHHEMGHIQYFMQYKDLPVALREGANPGFHEAIGDVLALSVSTPKHLHSLNLLSSEGGSDEHDINFLMKMALDKIAFIPFSYLVDQWRWRVFDGSITKENYNQEWWSLRLKYQGLCPPVPRTQGDFDPGAKFHIPSSVPYIRYFVSFIIQFQFHEALCQAAGHTGPLHKCDIYQSKEAGQRLATAMKLGFSRPWPEAMQLITGQPNMSASAMLSYFKPLLDWLRTENELHGEKLGWPQYNWTPNSARSEGPLPDSGRVSFLGLDLDAQQARVGQWLLLFLGIALLVATLGLSQRLFSIRHRSLHRHSHGPQFGSEVELRHS
Q: With B3 as the molecule, how does the “shift of RSSE-Fingerprint” value read?
A: shifted as expected

Q: And the “steady state equilibrium Ang 1-10 concentration, addition of ACE compared to ACE2” value (5 μg/ml enzyme, FIG. 2B1)?
A: lower
